{"source": "paper PMC10511499", "parents": {"B1": {"name": "LIS1, wild type, as used in mass photometry (construct not told) [human] / human Ndel1 coiled-coil domain (Ndel1^CC, residues 1-195) [human] (parent)", "chain 1": "MVLSQRQRDELNRAIADYLRSNGYEEAYSVFKKEAELDVNEELDKKYAGLLEKKWTSVIRLQKKVMELESKLNEAKEEFTSGGPLGQKRDPKEWIPRPPEKYALSGHRSPVTRVIFHPVFSVMVSASEDATIKVWDYETGDFERTLKGHTDSVQDISFDHSGKLLASCSADMTIKLWDFQGFECIRTMHGHDHNVSSVAIMPNGDHIVSASRDKTIKMWEVQTGYCVKTFTGHREWVRMVRPNQDGTLIASCSNDQTVRVWVVATKECKAELREHEHVVECISWAPESSYSSISEATGSETKKSGKPGPFLLSGSRDKTIKMWDVSTGMCLMTLVGHDNWVRGVLFHSGGKFILSCADDKTLRVWDYKNKRCMKTLNAHEHFVTSLDFHKTAPYVVTGSVDQTVKVWECR", "chain 2": "MDGEDIPDFSSLKEETAYWKELSLKYKQSFQEARDELVEFQEGSRELEAELEAQLVQAEQRNRDLQADNQRLKYEVEALKEKLEHQYAQSYKQVSVLEDDLSQTRAIKEQLHKYVRELEQANDDLERAKRATIVSLEDFEQRLNQAIERNAFLESELDEKESLLVSVQRLKDEARDLRQELAVRERQQEVTRKSA"}, "B2": {"name": "full-length yeast Pac1 with C-terminal FLAG-SNAPf [S. cerevisiae] / yeast Ndl1 coiled-coil domain (Ndl1^CC, residues 2-132) [S. cerevisiae] (parent)", "chain 1": "MTNWQQQLPLTDTQKNELDKSVLRYLNWNYKQTVRHEHAQDYESVRHAIVTLSGFLLQESVDRQEFISNNDTSNESMVDIDELLLPKKWNSIVRLQKKIIELEQNTETLVSQIKDLNTQVSELAQFKPTTSNGTSAHNVLKWIPRNLPSCLINVESSVTSVKLHPNLPIVFVATDHGKLYAFDLFNYTIPLASLQSHTKAITSMDVLFTNYTNSSKKNYLVIVTASKDLQIHVFKWVSEECKFQQIRSLLGHEHIVSAVKIWQKNNDVHIASCSRDQTVKIWDFHNGWSLKTFQPHSQWVRSIDVLGDYIISGSHDTTLRLTHWPSGNGLSVGTGHEFPIEKVKFIHFIEDSPEIRFRTPSTDRYKNWGMQYCVSASRDRTIKIWEIPLPTLMAHRAPIPNPTDSNFRCVLTLKGHLSWVRDISIRGQYLFSCADDKSVRCWDLNTGQCLHVWEKLHTGFVNCLDLDVDFDSNVTPRQMMVTGGLDCKSNVFMR", "chain 2": "VPNLDLETAIQIISSLETQLSELEGATKEYENDLEQVISKLKSDLLESQQQNKCNKKQITDLEIQVDELENENIQLRNKIETLQLESDRRLERNVLLEHELLDTKEALQKLRVSKEEATSGETRRNTRSLP"}}, "data": [{"variants_of": "B1", "experiment": "mass photometry", "conditions": "with human Ndel1 coiled-coil domain (Ndel1^CC, residues 1-195) [human]; Proteins mixed at a 1:1 molar ratio", "units": {"screen value": "%"}, "values": [{"variant": "chain 1 MVLSQRQRDELNRAIADYLRSNGYEEAYSVFKKEAELDVNEELDKKYAGLLEKKWTSVIRLQKKVMELESKLNEAKEEFTSGGPLGQKRDPKEWIPRPPEKYALSGHRSPVTRVIFHPVFSVMVSASEDATIKVWDYETGDFERTLKGHTDSVQDISFDHSGKLLASCSADMTIKLWDFQGFECIRTMHGHDHNVSSVAIMPNGDHIVSASRDKTIKMWEVQTGYCVKTFTGHREWVRMVRPNQDGTLIASCSNDQTVRVWVVATKECKAELREHEHVVECISWAPESSYSSISEATGSETKKSGKPGPFLLSGSADKTIKMWDVSTGMCLMTLVGHDNWVRGVLFHSGGKFILSCADDKTLRVWDYKNKRCMKTLNAHEHFVTSLDFHKTAPYVVTGSVDQTVKVWECR", "note": "[chain 1 R316A]", "screen value": 5}, {"variant": "chain 1 MVLSQRQRDELNRAIADYLRSNGYEEAYSVFKKEAELDVNEELDKKYAGLLEKKWTSVIRLQKKVMELESKLNEAKEEFTSGGPLGQKRDPKEWIPRPPEKYALSGHRSPVTRVIFHPVFSVMVSASEDATIKVWDYETGDFERTLKGHTDSVQDISFDHSGKLLASCSADMTIKLWDFQGFECIRTMHGHDHNVSSVAIMPNGDHIVSASRDKTIKMWEVQTGYCVKTFTGHREWVRMVRPNQDGTLIASCSNDQTVRVWVVATKECKAELREHEHVVECISWAPESSYSSISEATGSETKKSGKPGPFLLSGSRDKTIKMWDVSTGMCLMTLVGHDNAVRGVLFHSGGKFILSCADDKTLRVWDYKNKRCMKTLNAHEHFVTSLDFHKTAPYVVTGSVDQTVKVWECR", "note": "[chain 1 W340A]", "screen value": 0}]}, {"variants_of": "B2", "experiment": "mass photometry", "conditions": "with yeast Ndl1 coiled-coil domain (Ndl1^CC, residues 2-132) [S. cerevisiae]; Proteins mixed at a 1:1 molar ratio", "units": {"screen value": "%"}, "values": [{"variant": "chain 1 MTNWQQQLPLTDTQKNELDKSVLRYLNWNYKQTVRHEHAQDYESVRHAIVTLSGFLLQESVDRQEFISNNDTSNESMVDIDELLLPKKWNSIVRLQKKIIELEQNTETLVSQIKDLNTQVSELAQFKPTTSNGTSAHNVLKWIPRNLPSCLINVESSVTSVKLHPNLPIVFVATDHGKLYAFDLFNYTIPLASLQSHTKAITSMDVLFTNYTNSSKKNYLVIVTASKDLQIHVFKWVSEECKFQQIRSLLGHEHIVSAVKIWQKNNDVHIASCSADQTVKIWDFHNGWSLKTFQPHSQWVASIDVLGDYIISGSHDTTLRLTHWPSGNGLSVGTGHEFPIEKVKFIHFIEDSPEIRFRTPSTDRYKNWGMQYCVSASADRTIKIWEIPLPTLMAHRAPIPNPTDSNFRCVLTLKGHLSAVRDISIRGQYLFSCADDASVRCWDLNTGQCLHVWEKLHTGFVNCLDLDVDFDSNVTPRQMMVTGGLDCKSNVFMR", "note": "[chain 1 R275A R301A R378A W419A K437A]", "screen value": 0}]}]}
